Reference: patent publication US20020103133A1
Non-standard residues stand in square brackets, D forms with d. Dox = doxorubicin conjugated to the C-terminal Leu; hPhe = N[C@@H](CCc1ccccc1)C(=O)O

Molecular target: MMPs of HT1080 cells
Assay: cell-based or functional assay

Fraction of L-Dox, 0 hours, minus MMP inhibitor: 0
Fraction of L-Dox, 0 hours, plus MMP inhibitor: 0
Fraction of L-Dox, 3 hours, minus MMP inhibitor: 0.1
Fraction of L-Dox, 3 hours, plus MMP inhibitor: 0.004
Fraction of L-Dox, 5.5 hours, minus MMP inhibitor: 0.2
Fraction of L-Dox, 5.5 hours, plus MMP inhibitor: 0.01
Fraction of L-Dox, 8 hours, minus MMP inhibitor: 0.46
Fraction of L-Dox, 8 hours, plus MMP inhibitor: 0.02
Binder: Ac-PLG[hPhe]K(Me2)L-Dox [acetyl-P-L-G-Hof-(N,N-dimethyl-K)-L-Dox]
